Test results taken from patent US20050130130A1 (INSTITUT NATIONAL DE LA SANTE ET DE LA RECHERCHE MEDICALE …, published 2005).

Molecular target: T1, p50.2 KAR (human, UniProt P43631 22-304)
T1 construct: whole, on cells; also called KAR of D.F. NK cells; KAR p50.2
Assay: anti-CD158 immunoprecipitation from NK cell lysates, immunotransfer with anti-FcεRIγ

T1 sequence (P43631 22-304): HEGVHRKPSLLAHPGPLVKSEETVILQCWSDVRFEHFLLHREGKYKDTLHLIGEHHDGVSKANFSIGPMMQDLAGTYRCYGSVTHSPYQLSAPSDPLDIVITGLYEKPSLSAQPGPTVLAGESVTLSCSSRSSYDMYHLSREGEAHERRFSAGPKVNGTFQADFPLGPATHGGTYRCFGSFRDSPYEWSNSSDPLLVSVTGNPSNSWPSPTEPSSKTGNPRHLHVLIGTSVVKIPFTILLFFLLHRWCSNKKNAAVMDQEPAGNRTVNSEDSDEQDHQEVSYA

B1: FcεRIγ (other, human, UniProt P30273 19-86, looked up)
chain: LGEPQLCYILDAILFLYGIVLTLLYCRLKIQVRKAAITSYEKSDGVYTGLSTRNQETYETLKHEKPPQ
notes: whole, on cells; Endogenous protein in NK cell lysates; also called FcεRI gamma
Q: Does B1 bind?
A: no binding
